Data published in patent publication US20140348865A1, “[…] ON AN HIV-1 V1V2 SITE-OF-VULNERABILITY” (The United States of America, as represented by the …, priority 2011, published 2014).

Columns and labels:
[1] = target: BI369.9A (HIV-1)
[2] = target: 620345.c1 (HIV-1)
[3] = target: 3468_V1_C12 (HIV-1)
[4] = target: R3265.c6 (HIV-1)
[5] = target: 0330.v4.c3 (HIV-1)
[6] = target: 6545_V4_C1 (HIV-1)
[7] = target: MB539.2B7 (HIV-1)
[8] = target: MB201.A1 (HIV-1)
[9] = target: CNE5 (HIV-1)
[10] = target: R1166.c1 (HIV-1)
[11] = target: TH976.17 (HIV-1)
[12] = target: Q769.h5 (HIV-1)
[13] = target: CNE59 (HIV-1)
[14] = target: 3415.v1.c1 (HIV-1)
[15] = target: C3347.c11 (HIV-1)
[16] = target: 0815_V3_C3 (HIV-1)
[17] = target: CNE55 (HIV-1)
[18] = target: BS208.B1 (HIV-1)
[19] = target: 3301_V1_C24 (HIV-1)
[20] = target: KNH1209.18 (HIV-1)
[21] = target: 6540.v4.c1 (HIV-1)
[22] = target: KER2018.11 (HIV-1)
[23] = target: Q842.d12 (HIV-1)
[24] = target: Q461.e2 (HIV-1)
[25] = target: RW020.2 (HIV-1)
[26] = target: 0260.v5.c36 (HIV-1)
[27] = target: Q168.a2 (HIV-1)
[28] = target: BB539.2B13 (HIV-1)
[29] = target: Q259.17 (HIV-1)
[30] = target: Q23.17 (HIV-1)
[31] = target: BB201.B42 (HIV-1)
[32] = target: R2184.c4 (HIV-1)
[33] = target: C4118.09 (HIV-1)
[34] = target: Env of HIV-1 strain 398 (pseudovirus) (HIV-1)
[35] = target: Env of HIV-1 strain QH209 (pseudovirus) (HIV-1)
[36] = target: TH966.8 (HIV-1)
[37] = target: C1080.c3 (HIV-1)
[38] = target: Q769.d22 (HIV-1)
[39] = target: C2101.c1 (HIV-1)
[40] = target: MS208.A1 (HIV-1)
[41] = target: UG037.8 (HIV-1)
[42] = target: CNE3 (HIV-1)
[43] = target: M02138 (HIV-1)
[44] = target: Env of HIV-1 strain 0439 (pseudovirus) (HIV-1)
[45] = target: 3718.v3.c11 (HIV-1)
[46] = target: KER2008.12 (HIV-1)
[47] = target: 3589_V1_C4 (HIV-1)
[48] = target: 6095_V1_C10 (HIV-1)
[49] = target: Env of HIV-1 strain CNE56 (pseudovirus) (HIV-1)
[50] = target: MI369.A5 (HIV-1)
[51] = target: epitope-scaffold 2ZJR_B; test: ELISA, antibody dilution series on the scaffold
[52] = target: TH966.8
[53] = target: 3589_V1_C4
[54] = target: TH976.17
[55] = target: CNE59
[56] = target: 6095_V1_C10
[57] = target: C4118.09
[58] = target: MB201.A1
[59] = target: R2184.c4
[60] = target: Env of HIV-1 strain 398 (pseudovirus) (HIV-1); remark: listed apart in the source
[61] = target: CNE55
[62] = target: MB539.2B7
[63] = target: 0815_V3_C3
[64] = target: CNE5
[65] = target: linked dimers of the gp120 V1/V2 domain; test: gel filtration shift

monoclonal antibody PG9
neutralization IC80 [1]: 0.151 µg/mL
neutralization IC80 [2]: > 50 µg/mL
neutralization IC80 [3]: > 50 µg/mL
neutralization IC80 [4]: 9.8 µg/mL
neutralization IC80 [5]: 0.083 µg/mL
neutralization IC80 [6]: 0.315 µg/mL
neutralization IC80 [7]: 0.383 µg/mL
neutralization IC80 [8]: 0.193 µg/mL
neutralization IC80 [9]: < 0.023 µg/mL
neutralization IC80 [10]: 9.24 µg/mL
neutralization IC80 [11]: > 50 µg/mL
neutralization IC80 [12]: 0.007 µg/mL
neutralization IC80 [13]: 0.465 µg/mL
neutralization IC80 [14]: 0.77 µg/mL
neutralization IC80 [15]: 0.168 µg/mL
neutralization IC80 [16]: > 50 µg/mL
neutralization IC80 [17]: 1.32 µg/mL
neutralization IC80 [18]: 0.098 µg/mL
neutralization IC80 [19]: 1.51 µg/mL
neutralization IC80 [20]: > 50 µg/mL
neutralization IC80 [21]: 0.213 µg/mL
neutralization IC80 [22]: 0.004 µg/mL
neutralization IC80 [23]: 0.021 µg/mL
neutralization IC80 [24]: 29.9 µg/mL
neutralization IC80 [25]: 0.622 µg/mL
neutralization IC80 [26]: 22.8 µg/mL
neutralization IC80 [27]: 0.342 µg/mL
neutralization IC80 [28]: 0.422 µg/mL
neutralization IC80 [29]: 0.229 µg/mL
neutralization IC80 [30]: 0.02 µg/mL
neutralization IC80 [31]: 0.046 µg/mL
neutralization IC80 [32]: 1.75 µg/mL
neutralization IC80 [33]: 0.205 µg/mL
neutralization IC80 [34]: > 50 µg/mL
neutralization IC80 [35]: > 50 µg/mL
neutralization IC80 [36]: 0.183 µg/mL
neutralization IC80 [37]: 0.011 µg/mL
neutralization IC80 [38]: 0.033 µg/mL
neutralization IC80 [39]: 0.289 µg/mL
neutralization IC80 [40]: 0.589 µg/mL
neutralization IC80 [41]: 0.085 µg/mL
neutralization IC80 [42]: 1.12 µg/mL
neutralization IC80 [43]: 1.36 µg/mL
neutralization IC80 [44]: > 50 µg/mL
neutralization IC80 [45]: 0.202 µg/mL
neutralization IC80 [46]: 0.085 µg/mL
neutralization IC80 [47]: 0.102 µg/mL
neutralization IC80 [48]: 2.25 µg/mL
neutralization IC80 [49]: > 50 µg/mL
neutralization IC80 [50]: 0.364 µg/mL
EC50 (read off the curve) [51]: 0.1 µg/mL
neutralization IC50 [52]: 0.042 µg/mL
neutralization IC50 [53]: 0.025 µg/mL
neutralization IC50 [54]: > 50 µg/mL
neutralization IC50 [55]: 0.091 µg/mL
neutralization IC50 [56]: 0.242 µg/mL
neutralization IC50 [57]: 0.037 µg/mL
neutralization IC50 [58]: 0.024 µg/mL
neutralization IC50 [59]: 0.2 µg/mL
neutralization IC50 [60]: > 50 µg/mL
neutralization IC50 [61]: 0.146 µg/mL
neutralization IC50 [62]: 0.058 µg/mL
neutralization IC50 [63]: > 50 µg/mL
neutralization IC50 [64]: < 0.023 µg/mL
percent active for PG9 binding [65]: 100%

monoclonal antibody PG16
neutralization IC80 [1]: 0.037 µg/mL
neutralization IC80 [2]: > 50 µg/mL
neutralization IC80 [3]: > 50 µg/mL
neutralization IC80 [4]: 0.691 µg/mL
neutralization IC80 [5]: 0.027 µg/mL
neutralization IC80 [6]: 0.562 µg/mL
neutralization IC80 [7]: 0.205 µg/mL
neutralization IC80 [8]: 0.019 µg/mL
neutralization IC80 [9]: < 0.023 µg/mL
neutralization IC80 [10]: 12.5 µg/mL
neutralization IC80 [11]: > 50 µg/mL
neutralization IC80 [12]: 0.02 µg/mL
neutralization IC80 [13]: > 50 µg/mL
neutralization IC80 [14]: 0.342 µg/mL
neutralization IC80 [15]: 0.031 µg/mL
neutralization IC80 [16]: > 50 µg/mL
neutralization IC80 [17]: > 50 µg/mL
neutralization IC80 [18]: 0.012 µg/mL
neutralization IC80 [19]: 0.397 µg/mL
neutralization IC80 [20]: > 50 µg/mL
neutralization IC80 [21]: 0.154 µg/mL
neutralization IC80 [22]: 0.002 µg/mL
neutralization IC80 [23]: 0.006 µg/mL
neutralization IC80 [24]: > 50 µg/mL
neutralization IC80 [25]: 3.51 µg/mL
neutralization IC80 [26]: > 50 µg/mL
neutralization IC80 [27]: 0.106 µg/mL
neutralization IC80 [28]: 0.062 µg/mL
neutralization IC80 [29]: 0.717 µg/mL
neutralization IC80 [30]: 0.004 µg/mL
neutralization IC80 [31]: 0.008 µg/mL
neutralization IC80 [32]: > 50 µg/mL
neutralization IC80 [33]: 0.24 µg/mL
neutralization IC80 [34]: > 50 µg/mL
neutralization IC80 [35]: > 50 µg/mL
neutralization IC80 [36]: 0.03 µg/mL
neutralization IC80 [37]: 0.004 µg/mL
neutralization IC80 [38]: 11 µg/mL
neutralization IC80 [39]: 0.069 µg/mL
neutralization IC80 [40]: 31.8 µg/mL
neutralization IC80 [41]: 0.004 µg/mL
neutralization IC80 [42]: > 50 µg/mL
neutralization IC80 [43]: 0.81 µg/mL
neutralization IC80 [44]: > 50 µg/mL
neutralization IC80 [45]: 0.102 µg/mL
neutralization IC80 [46]: 0.046 µg/mL
neutralization IC80 [47]: 37.8 µg/mL
neutralization IC80 [48]: 0.443 µg/mL
neutralization IC80 [49]: > 50 µg/mL
neutralization IC80 [50]: 0.082 µg/mL
EC50 (read off the curve) [51]: 1 µg/mL
neutralization IC50 [52]: 0.008 µg/mL
neutralization IC50 [53]: 0.728 µg/mL
neutralization IC50 [54]: > 50 µg/mL
neutralization IC50 [55]: 0.113 µg/mL
neutralization IC50 [56]: < 0.023 µg/mL
neutralization IC50 [57]: 0.021 µg/mL
neutralization IC50 [58]: 0.001 µg/mL
neutralization IC50 [59]: 0.28 µg/mL
neutralization IC50 [60]: > 50 µg/mL
neutralization IC50 [61]: 1.37 µg/mL
neutralization IC50 [62]: 0.025 µg/mL
neutralization IC50 [63]: > 50 µg/mL
neutralization IC50 [64]: < 0.023 µg/mL
